Experimental data: PMC3890319, “Role of Receptor Activity Modifying Protein 1 in Function of the Calcium Sensing Receptor in the Human TT Thyroid Carcinoma Cell Line” (PLoS ONE, 2014)

T1: Calcium Sensing Receptor, C-terminal Citrine fusion (UniProt P41180 20-1078)
T1 construct: Calcium Sensing Receptor (CaSR); cDNA cloned without its stop codon between HindIII and Not1 of pcDNA3.1-Citrine; Acceptor of the FRET pair; it says only that the cDNA was cloned excluding the stop codon; also called CaSR; CaSR-citrine; source: COS-7, transfected by electroporation (pcDNA3.1), in fixed cells; not shown: Citrine, C-terminal, kept
T1 sequence (looked up): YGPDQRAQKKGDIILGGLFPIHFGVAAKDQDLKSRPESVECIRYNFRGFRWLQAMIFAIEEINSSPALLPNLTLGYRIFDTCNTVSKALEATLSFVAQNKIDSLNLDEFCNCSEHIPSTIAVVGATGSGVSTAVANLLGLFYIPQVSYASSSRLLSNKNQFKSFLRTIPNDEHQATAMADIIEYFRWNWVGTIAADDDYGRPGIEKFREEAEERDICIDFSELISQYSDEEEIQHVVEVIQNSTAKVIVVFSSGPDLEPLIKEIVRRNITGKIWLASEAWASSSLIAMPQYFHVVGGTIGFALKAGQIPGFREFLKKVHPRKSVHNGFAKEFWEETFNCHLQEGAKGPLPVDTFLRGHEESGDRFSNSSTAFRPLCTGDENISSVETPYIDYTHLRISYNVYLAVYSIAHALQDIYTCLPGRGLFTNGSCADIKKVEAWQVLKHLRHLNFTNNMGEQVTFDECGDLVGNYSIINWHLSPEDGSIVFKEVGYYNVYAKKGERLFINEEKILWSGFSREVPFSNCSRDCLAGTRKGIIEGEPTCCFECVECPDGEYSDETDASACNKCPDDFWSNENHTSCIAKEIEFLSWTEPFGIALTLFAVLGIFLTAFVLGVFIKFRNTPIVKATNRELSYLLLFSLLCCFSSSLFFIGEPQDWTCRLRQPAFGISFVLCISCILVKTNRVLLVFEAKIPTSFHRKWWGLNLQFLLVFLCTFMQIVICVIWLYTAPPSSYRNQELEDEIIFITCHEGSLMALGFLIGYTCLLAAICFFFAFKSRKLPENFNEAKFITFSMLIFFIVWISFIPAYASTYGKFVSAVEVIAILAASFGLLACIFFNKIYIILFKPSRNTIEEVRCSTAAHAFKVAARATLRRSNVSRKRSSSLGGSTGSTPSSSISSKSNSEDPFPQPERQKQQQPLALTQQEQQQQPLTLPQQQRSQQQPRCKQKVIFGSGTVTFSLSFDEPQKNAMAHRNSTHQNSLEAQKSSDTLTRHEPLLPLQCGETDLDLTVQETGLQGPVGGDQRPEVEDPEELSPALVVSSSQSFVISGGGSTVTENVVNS


Molecular target: T1, Calcium Sensing Receptor, C-terminal …
Experiment: FRET or BRET; sensitized-emission FRET (NFRET, PixFRET) and FRET-based stoichiometry in cell-surface regions of interest (50-pixel dots) of fixed COS-7 cells co-transfected with CaSR-Citrine (acceptor) and RAMP-Cerulean (donor); confocal microscopy at room temperature; NFRET as percent of a Cerulean-linker-Citrine positive control; negative control Citrine alone + RAMP-Cerulean
Conditions: partners not purified

Binder | stoichiometry N
Receptor Activity Modifying Protein 1, C-terminal Cerulean fusion (natural protein, UniProt O60894 27-148, looked up, Receptor Activity Modifying Protein 1 (RAMP1); cDNA cloned without its stop codon between Kpn1 and Not1 of pcDNA3.1-Cerulean; Donor of the FRET pair; also called RAMP1; RAMP1-Cer; source: COS-7, transfected by electroporation (pcDNA3.1), in fixed cells; not shown: Cerulean, C-terminal, kept) CQEANYGALLRELCLTQFQVDMEAVGETLWCDWGRTIRSYRELADCTWHMAEKLGCFWPNAEVDRFFLAVHGRYFRSCPISGRAVRDPPGSILYPFIVVPITVTLLVTALVVWQSKRTEGIV | 2.19 CaSR:RAMP
Receptor Activity Modifying Protein 3, C-terminal Cerulean fusion (natural protein, UniProt O60896 24-148, looked up, Receptor Activity Modifying Protein 3 (RAMP3); cDNA cloned without its stop codon between Kpn1 and Not1 of pcDNA3.1-Cerulean; Donor of the FRET pair; also called RAMP3; RAMP3-Cer; source: COS-7, transfected by electroporation (pcDNA3.1), in fixed cells; not shown: Cerulean, C-terminal, kept) RAGGCNETGMLERLPLCGKAFADMMGKVDVWKWCNLSEFIVYYESFTNCTEMEANVVGCYWPNPLAQGFITGIHRQFFSNCTVDRVHLEDPPDEVLIPLIVIPVVLTVAMAGLVVWRSKRTDTLL | 1.5 CaSR:RAMP
